One protein from PMC6690965, “OsCAldOMT1 is a bifunctional O-methyltransferase involved in the biosynthesis of tricin-lignins in rice cell walls” (Scientific Reports, 2019) can be followed below.

Substrate in data set [1]: COc1cc(-c2cc(=O)c3c(O)cc(O)cc3o2)cc(O)c1O
As to the kind of experiment: HPLC/LC-MS O-methylation assay, Michaelis-Menten fit. The class given is biochemical, Oryza sativa. To be noted: 50 mM Tris-HCl pH 7.5, co-substrate S-adenosyl-L-methionine, 20 min, 10-200 µM substrate, 5'-O-methylation giving tricin.

Substrate in data set [2]: COc1cc(/C=C/C=O)cc(O)c1O
Described as above. The class given is biochemical, Oryza sativa. To be noted: 50 mM Tris-HCl pH 7.5, co-substrate S-adenosyl-L-methionine, 20 min, 10-200 µM substrate.

What is called Km is the concentration of substrate that gives half-maximal velocity. A word on the kcat: it is the maximal rate divided by the concentration of active sites.

B1: OsCAldOMT1 (Oryza sativa Japonica Group) (protein)
chain: MGSTAADMAAAADEEACMYALQLASSSILPMTLKNAIELGLLETLQSAAVAGGGGKAALLTPAEVADKLPSKANPAAADMVDRMLRLLASYNVVRCEMEEGADGKLSRRYAAAPVCKWLTPNEDGVSMAALALMNQDKVLMESWYYLKDAVLDGGIPFNKAYGMTAFEYHGTDARFNRVFNEGMKNHSVIITKKLLDLYTGFDAASTVVDVGGGVGATVAAVVSRHPHIRGINYDLPHVISEAPPFPGVEHVGGDMFASVPRGGDAILMKWILHDWSDEHCARLLKNCYDALPEHGKVVVVECVLPESSDATAREQGVFHVDMIMLAHNPGGKERYEREFRELARAAGFTGFKATYIYANAWAIEFTK
Regarding B1, in data set [1], the Km amounted to 68.2 ± 14.5 µM and the kcat was 158.5 ± 16.6 s⁻¹. Also, in data set [2], the Km amounted to 132.8 ± 21.3 µM and the kcat was found to be 373.0 ± 37.9 s⁻¹.
